Test results from paper PMC9156947, “Identification of STAU1 as a regulator of HBV replication by TurboID-based proximity labeling” (iScience, 2022).

Legend:
[1] = target: T1, C10-STAU1 (UniProt O95793 1-577); assay: split reporter (BiFC, NanoBiT); tripartite Nanoluc luciferase: C10-tagged and N8-tagged proteins co-transfected with a plasmid expressing Nano1-7 into HepG2 cells; luciferase activity measured 48 h post-transfection; details: partners not purified
T1 construct: also called wild type STAU1; source: HepG2, transfected, in cells; not shown: C10 tag (tripartite NanoLuc), N-terminal, kept
T1 sequence (looked up): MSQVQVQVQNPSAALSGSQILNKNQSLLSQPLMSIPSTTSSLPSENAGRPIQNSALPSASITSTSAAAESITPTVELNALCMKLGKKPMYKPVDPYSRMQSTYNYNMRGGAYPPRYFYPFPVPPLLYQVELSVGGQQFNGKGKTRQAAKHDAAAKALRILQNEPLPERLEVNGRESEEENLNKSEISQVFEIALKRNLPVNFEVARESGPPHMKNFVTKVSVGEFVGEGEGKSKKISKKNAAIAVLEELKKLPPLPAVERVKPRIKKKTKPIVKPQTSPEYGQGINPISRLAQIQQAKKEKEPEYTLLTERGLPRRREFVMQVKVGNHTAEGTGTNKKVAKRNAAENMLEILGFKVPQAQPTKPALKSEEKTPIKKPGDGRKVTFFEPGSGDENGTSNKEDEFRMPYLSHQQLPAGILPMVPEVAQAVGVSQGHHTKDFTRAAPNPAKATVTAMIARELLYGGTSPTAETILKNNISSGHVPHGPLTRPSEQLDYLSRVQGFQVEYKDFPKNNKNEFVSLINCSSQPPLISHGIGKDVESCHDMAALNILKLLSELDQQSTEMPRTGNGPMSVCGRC

[2] = target: T2, C10-DDB1 (UniProt Q16531 1-1140); assay: as above; details: partners not purified
T2 construct: also called wild type DDB1; source: HepG2, transfected, in cells; not shown: C10 tag (tripartite NanoLuc), N-terminal, kept
T2 sequence (Q16531 whole entry): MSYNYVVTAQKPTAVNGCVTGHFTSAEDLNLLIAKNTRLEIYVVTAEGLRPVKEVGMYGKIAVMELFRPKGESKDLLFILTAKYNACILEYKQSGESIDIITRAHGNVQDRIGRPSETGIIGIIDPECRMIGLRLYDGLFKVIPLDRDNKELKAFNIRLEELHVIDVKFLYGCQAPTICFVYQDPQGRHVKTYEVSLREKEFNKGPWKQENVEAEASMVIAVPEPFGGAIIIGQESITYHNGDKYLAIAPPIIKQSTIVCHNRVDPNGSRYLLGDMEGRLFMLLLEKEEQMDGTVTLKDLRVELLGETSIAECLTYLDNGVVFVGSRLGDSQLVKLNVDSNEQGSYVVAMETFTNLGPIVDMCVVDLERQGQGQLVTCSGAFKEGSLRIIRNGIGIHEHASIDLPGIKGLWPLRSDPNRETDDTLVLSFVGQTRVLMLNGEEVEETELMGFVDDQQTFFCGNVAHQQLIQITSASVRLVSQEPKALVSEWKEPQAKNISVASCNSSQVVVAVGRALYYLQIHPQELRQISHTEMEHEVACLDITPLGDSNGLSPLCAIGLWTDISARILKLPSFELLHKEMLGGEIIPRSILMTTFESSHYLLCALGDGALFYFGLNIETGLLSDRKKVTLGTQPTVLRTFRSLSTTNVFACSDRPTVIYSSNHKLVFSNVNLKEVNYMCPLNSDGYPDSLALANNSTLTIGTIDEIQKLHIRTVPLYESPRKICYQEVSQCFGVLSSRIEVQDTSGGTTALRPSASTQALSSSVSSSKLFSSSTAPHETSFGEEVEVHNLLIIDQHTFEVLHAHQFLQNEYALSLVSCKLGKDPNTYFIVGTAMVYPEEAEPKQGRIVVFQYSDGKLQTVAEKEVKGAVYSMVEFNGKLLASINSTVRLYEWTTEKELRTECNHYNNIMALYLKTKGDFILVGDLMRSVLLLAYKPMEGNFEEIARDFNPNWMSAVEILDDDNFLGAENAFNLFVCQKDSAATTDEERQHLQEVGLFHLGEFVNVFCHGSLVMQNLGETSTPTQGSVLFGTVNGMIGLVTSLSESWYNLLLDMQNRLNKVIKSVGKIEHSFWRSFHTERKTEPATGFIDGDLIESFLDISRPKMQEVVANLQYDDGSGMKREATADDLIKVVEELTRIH

B1: N8-TAF10 (natural protein)
chain: not shown
notes: source: transfected cells (tripartite NanoLuc system), in cells
B1 was tested, and the “fold luminescence over the control” value [1] was greater than 20 fold.

B2: N8-HBx (natural protein)
chain: MAARLCCQLDPARDVLCLRPVGAESRGRPFSGSLGTLSSPSPSAVPTDHGAHLSLRGLPVCAFSSAGPCALRFTSARRMETTVNAHQILPKVLHKRTLGLSAMSTTDLEAYFKDCLFKDWEELGEEIRLKVFVLGGCRHKLVCAPAPCNFFTSA
notes: also called X protein; wild type HBx; source: HepG2, transfected, in cells; not shown: N8 tag (tripartite NanoLuc), N-terminal, kept
In the case of B2, the “fold luminescence over the controls” value [2] is reported as roughly 200 fold and the “fold luminescence over the controls” value [1] is reported as 28 fold.
